B1: BBSome complex member BBS1 (Homo sapiens), Q8NFJ9 (parent)
chain: MAAASSSDSDACGAESNEANSKWLDAHYDPMANIHTFSACLALADLHGDGEYKLVVGDLGPGGQQPRLKVLKGPLVMTESPLPALPAAAATFLMEQHEPRTPALALASGPCVYVYKNLRPYFKFSLPQLPPNPLEQDLWNQAKEDRIDPLTLKEMLESIRETAEEPLSIQSLRFLQLELSEMEAFVNQHKSNSIKRQTVITTMTTLKKNLADEDAVSCLVLGTENKELLVLDPEAFTILAKMSLPSVPVFLEVSGQFDVEFRLAAACRNGNIYILRRDSKHPKYCIELSAQPVGLIRVHKVLVVGSTQDSLHGFTHKGKKLWTVQMPAAILTMNLLEQHSRGLQAVMAGLANGEVRIYRDKALLNVIHTPDAVTSLCFGRYGREDNTLIMTTRGGGLIIKILKRTAVFVEGGSEVGPPPAQAMKLNVPRKTRLYVDQTLREREAGTAMHRAFQTDLYLLRLRAARAYLQALESSLSPLSTTAREPLKLHAVVQGLGPTFKLTLHLQNTSTTRPVLGLLVCFLYNEALYSLPRAFFKVPLLVPGLNYPLETFVESLSNKGISDIIKVLVLREGQSAPLLSAHVNMPGSEGLAAA
partner: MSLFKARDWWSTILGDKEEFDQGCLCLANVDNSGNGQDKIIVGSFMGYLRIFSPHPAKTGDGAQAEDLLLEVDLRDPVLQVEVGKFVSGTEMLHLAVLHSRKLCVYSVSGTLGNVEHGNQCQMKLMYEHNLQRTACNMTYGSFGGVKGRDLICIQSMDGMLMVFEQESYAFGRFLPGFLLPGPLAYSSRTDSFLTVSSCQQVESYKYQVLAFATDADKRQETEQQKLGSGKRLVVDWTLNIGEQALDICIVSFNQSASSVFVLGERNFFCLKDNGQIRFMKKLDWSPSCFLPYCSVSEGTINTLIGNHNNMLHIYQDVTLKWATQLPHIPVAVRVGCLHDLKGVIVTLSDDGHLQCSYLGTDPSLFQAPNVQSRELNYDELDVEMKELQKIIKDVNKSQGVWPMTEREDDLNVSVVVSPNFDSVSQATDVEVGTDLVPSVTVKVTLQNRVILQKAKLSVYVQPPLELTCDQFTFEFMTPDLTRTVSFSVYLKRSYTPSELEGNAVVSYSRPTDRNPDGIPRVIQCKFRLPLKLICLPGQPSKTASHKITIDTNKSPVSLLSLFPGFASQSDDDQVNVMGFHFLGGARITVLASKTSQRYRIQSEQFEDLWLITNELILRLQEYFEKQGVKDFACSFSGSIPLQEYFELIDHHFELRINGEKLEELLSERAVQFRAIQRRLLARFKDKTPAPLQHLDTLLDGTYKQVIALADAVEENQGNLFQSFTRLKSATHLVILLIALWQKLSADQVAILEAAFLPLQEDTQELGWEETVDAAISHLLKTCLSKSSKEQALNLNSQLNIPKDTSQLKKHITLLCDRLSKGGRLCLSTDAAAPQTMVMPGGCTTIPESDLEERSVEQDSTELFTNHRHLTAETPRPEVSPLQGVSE

In this experiment the parent is B1. The settings on record: with pthb1_human BBS9, Q3SYG4.
As to MAAASSSDSDACGAESNEANSKWLDAHYDPMANIHTFSACLALADLHGDGEYKLVVGDLGPGGQQPRLKVLKGPLVMTESPLPALPAAAATFLMEQHEPRTPALALASGPCVYVYKNLRPYFKFSLPQLPPNPLEQDLWNQAKEDRIDPLTLKEMLESIRETAEEPLSIQSLRFLQLELSEMEAFVNQHKSNSIKRQTVITTMTTLKKNLADEDAVSCLVLGTENKELLVLDPEAFTILAKMSLPSVPVFLEVSGQFDVEFRLAAACRNGNIYILRRDSKHPKYCIELSAQPVGLIRVHKVLVVGSTQDSLHGFTHKGKKLWTVQMPAAILTMNLLEQHSRGLQAVMAGLANGEVRIYRDKALLNVIHTPDAVTSLCFGRYGREDNTLIMTTRGGGLIIKILKRTAVFVEGGSEVGPPPAQAMKLNVPRKTRLYVDQTLREREAGTAMHRAFQTDLYLLRLRAARAYLQALESSLSPLSTTAREPLKLHAVVQGLGPTFKLTLHLQNTSTTRPVLGLLVCFLYNEALYSLPRAFFKVPLLVPGLNYPLETFVESLSNKGISDIIKVLVLREGQSAPLLSAHVNMPGEEGLAAA [S587E], the “effect of a mutation on the interaction” value was “with no effect”.

MAAASSSDSDACGAESNEANSKWLDAHYDPMANIHTFSACLALADLHGDGEYKLVVGDLGPGGQQPRLKVLKGPLVMTESPLPALPAAAATFLMEQHEPRTPALALASGPCVYVYKNLRPYFKFSLPQLPPNPLEQDLWNQAKEDRIDPLTLKEMLESIRETAEEPLSIQSLRFLQLELSEMEAFVNQHKSNSIKRQTVITTMTTLKKNLADEDAVSCLVLGTENKELLVLDPEAFTILAKMSLPSVPVFLEVSGQFDVEFRLAAACRNGNIYILRRDSKHPKYCIELSAQPVGLIRVHKVLVVGSTQDSLHGFTHKGKKLWTVQMPAAILTMNLLEQHSRGLQAVMAGLANGEVRIYRDKALLNVIHTPDAVTSLCFGRYGREDNTLIMTTRGGGLIIKILKRTAVFVEGGSEVGPPPAQAMKLNVPRKTRLYVDQTLREREAGTAMHRAFQTDLYLLRLRAARAYLQALESSLSPLSTTAREPLKLHAVVQGLGPTFKLTLHLQNTSTTRPVLGLLVCFLYNEALYSLPRAFFKVPLLVPGLNYPLETFVESLSNKGISDIIKVLVLREGQSAPLLSAHVNMPGAEGLAAA [S587A]: the “effect of a mutation on the interaction” value is reported as “with no effect”.

On to MAAASSSDSDACGAESNEANSKWLDAHYDPMANIHTFSACLALADLHGDGEYKLVVGDLGPGGQQPRLKVLKGPLVMTESPLPALPAAAATFLMEQHEPRTPALALASGPCVYVYKNLRPYFKFSLPQLPPNPLEQDLWNQAKEDRIDPLTLKEMLESIRETAEEPLSIQSLRFLQLELSEMEAFVNQHKSNSIKRQTVITTMTTLKKNLADEDAVSCLVLGTENKELLVLDPEAFTILAKMSLPSVPVFLEVSGQFDVEFRLAAACRNGNIYILRRDSKHPKYCIELSAQPVGLIRVHKVLVVGSTQDSLHGFTHKGKKLWTVQMPAAILTMNLLEQHSRGLQAVMAGLANGEVRIYRDKALLNVIHTPDAVTSLCFGRYGREDNTLIMTTRGGGLIIKILKRTAVFVEGGSEVGPPPAQAMKLNVPRKTRLYVDQTLREREAGTAMHRAFQTDLYLLRLRAARAYLQALESSLSPLSTTAREPLKLHAVVQGLGPTFKLTLHLQNTSTTRPVLGLLVCFLYNEALYSLPRAFFKVPLLVPGLNYPLETFVESLSNKGISDIIKVLVLREGQSAPLLSAHVNMPESEGLAAA [G586E], for which the “effect of a mutation on the interaction” value is “with no effect”.

MAAASSSDSDACGAESNEANSKWLDAHYDPMANIHTFSACLALADLHGDGEYKLVVGDLGPGGQQPRLKVLKGPLVMTESPLPALPAAAATFLMEQHEPRTPALALASGPCVYVYKNLRPYFKFSLPQLPPNPLEQDLWNQAKEDRIDPLTLKEMLESIRETAEEPLSIQSLRFLQLELSEMEAFVNQHKSNSIKRQTVITTMTTLKKNLADEDAVSCLVLGTENKELLVLDPEAFTILAKMSLPSVPVFLEVSGQFDVEFRLAAACRNGNIYILRRDSKHPKYCIELSAQPVGLIRVHKVLVVGSTQDSLHGFTHKGKKLWTVQMPAAILTMNLLEQHSRGLQAVMAGLANGEVRIYRDKALLNVIHTPDAVTSLCFGRYGREDNTLIMTTRGGGLIIKILKRTAVFVEGGSEVGPPPAQAMKLNVPRKTRLYVDQTLREREAGTAMHRAFQTDLYLLRLRAARAYLQALESSLSPLSTTAREPLKLHAVVQGLGPTFKLTLHLQNTSTTRPVLGLLVCFLYNEALYSLPRAFFKVPLLVPGLNYPLETFVESLSNKGISDIIKVLVLREGQSAPLLSAHVNMPRSEGLAAA [G586R]: the “effect of a mutation on the interaction” value is listed as “disrupting interaction strength”.

As to MAAASSSDSDACGAESNEANSKWLDAHYDPMANIHTFSACLALADLHGDGEYKLVVGDLGPGGQQPRLKVLKGPLVMTESPLPALPAAAATFLMEQHEPRTPALALASGPCVYVYKNLRPYFKFSLPQLPPNPLEQDLWNQAKEDRIDPLTLKEMLESIRETAEEPLSIQSLRFLQLELSEMEAFVNQHKSNSIKRQTVITTMTTLKKNLADEDAVSCLVLGTENKELLVLDPEAFTILAKMSLPSVPVFLEVSGQFDVEFRLAAACRNGNIYILRRDSKHPKYCIELSAQPVGLIRVHKVLVVGSTQDSLHGFTHKGKKLWTVQMPAAILTMNLLEQHSRGLQAVMAGLANGEVRIYRDKALLNVIHTPDAVTSLCFGRYGREDNTLIMTTRGGGLIIKILKRTAVFVEGGSEVGPPPAQAMKLNVPRKTRLYVDQTLREREAGTAMHRAFQTDLYLLRLRAARAYLQALESSLSPLSTTAREPLKLHAVVQGLGPTFKLTLHLQNTSTTRPVLGLLVCFLYNEALYSLPRAFFKVPLLVPGLNYPLETFVESLSNKGISDIIKVLVLREGQSAPLLSAHVNMPKSEGLAAA [G586K], the “effect of a mutation on the interaction” value is reported as “with no effect”.

(Values after IntAct's records for PubMed 29039417.)
